Laboratory results taken from publication PMC12622487.

Target: Cys32 (UniProt position 32, FSATWCGPCKM)
Conditions: Reduced (free thiol) form is presumed; not explicitly stated for the pKa determination.

## Thioredoxin-1 (native recombinant human TRX, rhTRX) (Homo sapiens)
  pKa: 6.3
